Data as given in PMC4018787 (The Journal of Cell Biology, 2014).

Experiments:
[1] = biological target: T1, recombinant fibrinogen-like (FBG) domain of tenascin-X (TNX), produced in mammalian cells (UniProt O18977 3911-4135); assay: ELISA
T1 sequence (looked up): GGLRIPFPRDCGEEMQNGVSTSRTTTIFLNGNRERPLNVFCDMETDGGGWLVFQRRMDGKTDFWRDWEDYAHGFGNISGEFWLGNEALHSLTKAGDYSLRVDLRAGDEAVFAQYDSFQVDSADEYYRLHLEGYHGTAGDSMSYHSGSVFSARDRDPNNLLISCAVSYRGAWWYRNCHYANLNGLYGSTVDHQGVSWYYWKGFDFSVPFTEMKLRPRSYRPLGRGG

[2] = biological target: recombinant full-length tenascin-X (TNX) (UniProt O18977 23-4135); assay: ELISA

B1: inserted (I) domain of the α11 integrin chain fused to GST (domain or fragment, human, UniProt Q9UKX5-1 160-358, looked up)
chain: QTYMDIVIVLDGSNSIYPWVEVQHFLINILKKFYIGPGQIQVGVVQYGEDVVHEFHLNDYRSVKDVVEAASHIEQRGGTETRTAFGIEFARSEAFQKGGRKGAKKVMIVITDGESHDSPDLEKVIQQSERDNVTRYAVAVLGYYNRRGINPETFLNEIKYIASDPDDKHFFNVTDEAALKDIVDALGDRIFSLEGTNKN
[1]
  binding result: binds
[2]
  binding result: binds
